Laboratory results taken from the supplement of paper PMC12783771.
± gives the standard deviation of the averaged measurements.

B1: library; numbered along this chain (parent)
chain: MNIQIGELAKRTACPVVTIRFYEQEGLLPPPGRSRGNFRLYGEEHVERLQFIRHCRSLDMPLSDVRTLLSYRKRPDQDCGEVNMLLDEHIRQVESRIGALLELKHHLVELREACSGARPAQSCGILQGLSDCVCDTRGTTAHPSD

Columns and labels:
[1] = variants of: B1; test: sfGFP reporter fluorescence (15 h) (µM FITC); higher = higher leak; conditions: library round: Round 0; ligand: none
Method in brief: (§1)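 Readout was endpoint sfGFP fluorescence, converted to µM FITC through standard curves. Reactions were 1 μL of BL21 Star (DE3) PANOx-SP extract with pPbrR-sfGFP reporter, 30 μg/mL GamS and linear PbrR templates normalized to 5 nM, containing 1 µM lead chloride, 30 µM zinc acetate or no metal. Incubation lasted 15 hr at 30 °C, with up to three biological replicates.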

[2] = variants of: B1; test: sfGFP reporter fluorescence (15 h) (µM FITC); higher = stronger transcriptional activation; conditions: library round: Round 0
Method in brief: as §1

| Variant | sfGFP reporter fluorescence [1] | sfGFP reporter fluorescence ([2]; ligand: 1 µM Pb) | sfGFP reporter fluorescence ([2]; ligand: 30 µM Zn) |
| --- | --- | --- | --- |
| L126I | 0.0542 ± 0.001 | 0.0568 ± 0.0015 | 0.238 ± 0.012 |
| L126M | 0.0594 ± 0.0015 | 0.0596 ± 0.0018 | 0.22 ± 0.032 |
| M60F | 1.94 ± 0.16 | 2.94 ± 0.1 | 2.92 ± 0.028 |
| L62G | 0.0586 ± 0.001 | 0.0579 ± 0.0015 | 0.0614 ± 0.00078 |
| L62R | 0.06377 ± 0.00052 | 0.0643 ± 0.0013 | 0.0704 ± 0.0047 |
| L62P | 0.06194 ± 0.00052 | 0.06487 ± 0.00052 | 0.0993 ± 0.0042 |
| L62D | 0.06066 ± 0.00026 | 0.0629 ± 0.0018 | 0.0649 ± 0.001 |
| L62E | 0.06066 ± 0.00026 | 0.0625 ± 0.0023 | 0.0658 ± 0.0013 |
| E7T | 0.0625 ± 0.0018 | 0.0894 ± 0.001 | 0.904 ± 0.041 |
| E7H | 0.06139 ± 0.00026 | 0.083 ± 0.0013 | 0.638 ± 0.036 |
| R33P | 0.0607 ± 0.0013 | 0.05956 ± 0.00026 | 0.064 ± 0.00078 |
| R33D | 0.0651 ± 0.00078 | 0.06377 ± 0.00052 | 0.0652 |
| R33K | 0.064 ± 0.0013 | 0.0634 ± 0.0042 | 0.112 ± 0.0065 |
| L129S | 0.0577 ± 0.0013 | 0.05901 ± 0.00052 | 0.0563 ± 0.00078 |
| L129F | 0.0559 ± 0.0013 | 0.0581 ± 0.00078 | 0.0564 ± 0.001 |
| L129A | 0.0572 ± 0.0021 | 0.0561 ± 0.001 | 0.0574 ± 0.0018 |
| E43M | 0.0597 ± 0.0047 | 0.099 ± 0.0047 | 1.33 ± 0.083 |
| E43N | 0.0577 ± 0.006 | 0.0828 ± 0.0036 | 1.21 ± 0.02 |
| E43C | 0.06066 ± 0.00026 | 0.0887 ± 0.0042 | 0.481 ± 0.018 |
| E43G | 0.0583 ± 0.0021 | 0.0883 ± 0.001 | 0.924 ± 0.066 |
| E43L | 0.05113 ± 0.00026 | 0.0713 ± 0.007 | 1.01 ± 0.038 |
| L28P | 0.06102 ± 0.00026 | 0.06047 ± 0.00052 | 0.0619 ± 0.001 |
| L28G | 0.05882 ± 0.00026 | 0.0581 ± 0.00078 | 0.059 ± 0.001 |

| Variant | sfGFP reporter fluorescence [1] | sfGFP reporter fluorescence ([2]; ligand: 1 µM Pb) | sfGFP reporter fluorescence ([2]; ligand: 30 µM Zn) |
| --- | --- | --- | --- |
| L28T | 0.0647 ± 0.0013 | 0.0691 ± 0.0013 | 0.166 ± 0.031 |
| M60L P61N G128M | 0.822 ± 0.13 | 1.91 ± 0.38 | 3.32 ± 0.64 |
| L27T | 0.0621 ± 0.0013 | 0.06029 ± 0.00026 | 0.0594 ± 0.0026 |
| L27H | 0.0623 ± 0.0015 | 0.06322 ± 0.00026 | 0.0762 ± 0.001 |
| C55M | 0.0645 ± 0.0015 | 0.0733 ± 0.0026 | 0.139 ± 0.018 |
| C55F | 0.0634 ± 0.001 | 0.0674 ± 0.001 | 0.0876 |
| C55R | 0.0596 ± 0.0018 | 0.0592 ± 0.0013 | 0.0572 |
| V108H | 0.05772 ± 0.00026 | 0.0814 ± 0.0073 | 0.846 ± 0.019 |
| V108Q | 0.0566 ± 0.00078 | 0.068 ± 0.0018 | 0.672 ± 0.06 |
| R91A | 0.0618 ± 0.00078 | 0.0724 ± 0.0029 | 0.6942 ± 0.0015 |
| D64K K104V L107C G128M | 3.13 ± 0.25 | 3.98 ± 0.082 | 3.57 ± 0.84 |
| D64K L107C | 3.83 ± 0.36 | 3.75 ± 0.15 | 4.11 ± 0.21 |
| Y41E | 0.0607 ± 0.00078 | 0.0625 ± 0.00078 | 0.0619 ± 0.0015 |
| Y41Q | 0.0581 ± 0.0023 | 0.0597 | 0.0574 ± 0.0054 |
| S115A | 0.0599 ± 0.00078 | 0.0663 ± 0.0047 | 0.478 ± 0.14 |
| V82A | 0.06047 ± 0.00052 | 0.057 ± 0.0013 | 0.0786 ± 0.0039 |
| V82W | 0.0592 ± 0.0013 | 0.05827 ± 0.00052 | 0.0555 ± 0.00078 |
| V82M | 0.0594 | 0.0586 | 0.06212 ± 0.00026 |
| V82T | 0.0588 ± 0.0013 | 0.059 ± 0.0021 | 0.0583 ± 0.0057 |
| V82N | 0.0597 ± 0.001 | 0.0597 ± 0.0015 | 0.05644 ± 0.00052 |
| V82C | 0.05956 ± 0.00026 | 0.0588 ± 0.00078 | 0.0898 ± 0.0042 |
| L68P | 0.0632 ± 0.0029 | 0.0583 ± 0.0015 | 0.0652 ± 0.0026 |
| L68Q | 0.0603 ± 0.00078 | 0.05736 ± 0.00026 | 0.0629 ± 0.0018 |

| Variant | sfGFP reporter fluorescence [1] | sfGFP reporter fluorescence ([2]; ligand: 1 µM Pb) | sfGFP reporter fluorescence ([2]; ligand: 30 µM Zn) |
| --- | --- | --- | --- |
| L68K | 0.0608 ± 0.0021 | 0.0566 ± 0.0013 | 0.0638 ± 0.0036 |
| L101A | 0.0632 ± 0.0013 | 0.0746 ± 0.0013 | 0.555 ± 0.17 |
| F21Q | 0.0605 | 0.05827 ± 0.00052 | 0.0625 ± 0.00078 |
| F21H | 0.0596 ± 0.0018 | 0.0629 ± 0.0023 | 0.276 ± 0.0091 |
| F21T | 0.0601 ± 0.0015 | 0.06121 ± 0.00052 | 0.06066 ± 0.00026 |
| F21Y | 0.06102 ± 0.00026 | 0.0755 ± 0.0015 | 0.819 ± 0.015 |
| F21D | 0.0616 ± 0.0015 | 0.0614 ± 0.0013 | 0.0599 ± 0.00078 |
| V65A | 0.0629 ± 0.0013 | 0.0678 ± 0.0052 | 0.153 ± 0.036 |
| P143S | 0.0566 ± 0.0023 | 0.07568 ± 0.00026 | 0.842 ± 0.05 |
| P143I | 0.05534 ± 0.00052 | 0.0768 ± 0.0023 | 0.801 ± 0.12 |
| P143R | 0.05864 ± 0.00052 | 0.0806 ± 0.0052 | 0.983 ± 0.14 |
| P143N | 0.0568 ± 0.0015 | 0.0718 ± 0.0057 | 0.865 ± 0.12 |
| D78A | 0.0713 ± 0.0065 | 0.0689 ± 0.0021 | 0.1 ± 0.0026 |
| E112V | 0.0572 ± 0.0015 | 0.06597 ± 0.00052 | 0.343 ± 0.0078 |
| E112Q | 0.0627 ± 0.0015 | 0.0909 ± 0.0078 | 1.27 ± 0.082 |
| E112N | 0.06212 ± 0.00026 | 0.079 ± 0.0029 | 1.04 ± 0.13 |
| L58S | 0.05717 ± 0.00052 | 0.0586 | 0.0563 ± 0.0013 |
| L58T | 0.0588 ± 0.0018 | 0.05864 ± 0.00052 | 0.05644 ± 0.00052 |
| L58P | 0.0594 ± 0.0015 | 0.0601 ± 0.001 | 0.0605 ± 0.001 |
| E109W | 0.061 ± 0.00078 | 0.0872 ± 0.0026 | 1.26 ± 0.035 |
| E109D | 0.0597 ± 0.0021 | 0.0727 ± 0.0023 | 0.674 ± 0.02 |
| E109R | 0.06542 ± 0.00026 | 0.102 ± 0.0078 | 1.86 ± 0.052 |
| E109I | 0.05919 ± 0.00026 | 0.108 ± 0.0018 | 1.25 ± 0.29 |

| Variant | sfGFP reporter fluorescence [1] | sfGFP reporter fluorescence ([2]; ligand: 1 µM Pb) | sfGFP reporter fluorescence ([2]; ligand: 30 µM Zn) |
| --- | --- | --- | --- |
| E109A | 0.0636 ± 0.00078 | 0.0804 ± 0.0039 | 0.883 ± 0.35 |
| V17A | 0.0568 ± 0.001 | 0.0566 ± 0.0013 | 0.622 ± 0.11 |
| E94R | 0.0597 ± 0.0052 | 0.0803 ± 0.0031 | 0.722 ± 0.032 |
| E94H | 0.0592 ± 0.0029 | 0.0632 ± 0.0023 | 0.344 ± 0.021 |
| E94G | 0.0553 ± 0.0036 | 0.0656 ± 0.0031 | 0.52721 ± 0.00026 |
| E94Q | 0.0632 ± 0.0013 | 0.0856 ± 0.008 | 1.02 ± 0.07 |
| D131R | 0.0733 ± 0.00052 | 0.17 ± 0.022 | 1.65 ± 0.29 |
| D131A | 0.0691 ± 0.00078 | 0.1098 ± 0.00078 | 1.141 ± 0.0013 |
| D131E | 0.059 ± 0.0021 | 0.0825 ± 0.0042 | 0.657 ± 0.043 |
| D131S | 0.0618 ± 0.0034 | 0.1033 ± 0.00052 | 0.962 ± 0.087 |
| M60L P61N L107C G128I | 1.87 ± 0.42 | 3.58 ± 0.081 | 4.97 ± 0.23 |
| G36R | 0.0597 ± 0.0015 | 0.0656 ± 0.0026 | 0.247 ± 0.0088 |
| P61W | 0.061 ± 0.0039 | 0.06395 ± 0.00026 | 0.104 ± 0.0018 |
| D135Y | 0.0676 ± 0.0039 | 0.116 ± 0.0073 | 1.46 ± 0.17 |
| D135A | 0.0733 ± 0.0015 | 0.0834 ± 0.0029 | 0.335 ± 0.0078 |
| V46W | 0.0583 ± 0.0021 | 0.0757 ± 0.0034 | 0.429 ± 0.0044 |
| V46H | 0.0557 ± 0.0015 | 0.0738 ± 0.00078 | 0.345 ± 0.039 |
| V46L | 0.0542 ± 0.0047 | 0.0847 ± 0.015 | 0.811 ± 0.057 |
| K104E | 0.0552 ± 0.0086 | 0.0691 ± 0.015 | 0.635 ± 0.12 |
| K104P | 0.0509 ± 0.0073 | 0.0544 ± 0.0054 | 0.08191 ± 0.00078 |
